± gives the uncertainty stated by the source.
Experiment: self-splicing fitness, log relative to wild type (ln ratio); higher = more splicing; Tetrahymena group I intron in knt gene, E. coli kanamycin selection, DiMSum; sequences stand for … in CUCUCU…GGAGGGAAAAGUUAUCAGGCAUGCACCUGGUAGCUAGUCUUUAAACCAAUAGAUUGCAUCGGUUUAAAAGGCAAGACCGUCAAAUUGCGGGAAAGGGGUCAACAGCCGUUCAGUACCAAGUCUCAGGGGAAACUUUGAGAUGGCCUUGCAAAGGGUAUGGUAAUAAGCUGACGGACAUGGUCCUAACCACGCAGCCAAGUCCUAAGUCAACAGAUCUUCUGUUGAUAUGGAUGCAGUUCACAGACUAAAUGUCGGUCGGGGAAGAUGUAUUCUUCUCAUAAGAUAUAGUCGGACCUCUCCUUAAUGGGAGCUAGCGGAUGAAGUGAUGCAACACUGGAGCCGCUGGGAACUAAUUUGUAUGCGAAAGUAUAUUGAUUAGUUUUGGAGUACUCGUGGUCG
Summary of the method: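 Fitness was computed with DiMSum as the error-weighted combination of replicate fold changes, kanamycin versus none, each normalised to wild type. The library randomised all eight intron nucleotides of the P1ex region, with the intron placed in the knt kanamycin-resistance gene on pET-22b(+) in E. coli BL21(DE3). Six replicate transformations were grown overnight at 37°C or 30°C on LB agar with or without 25 μg/mL kanamycin, plus 100 μg/mL carbenicillin, 50 μM IPTG and 0.2% rhamnose. Pooled colonies were amplicon-sequenced on an Illumina HiSeq 2500.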

Row | Sequence | self-splicing fitness (ln) (30 °C) | self-splicing fitness (ln) (37 °C)
1 | UACUAGCAAUAUUACGAAAG | -2.94 ± 0.11 | -1.93 ± 0.13
2 | UACUAGCAAUAUUACGAAGG | -3.46 ± 0.29 | -1.04 ± 0.34
3 | UACUAGCAAUAUUACGAAUG | -0.956 ± 0.083 | 0.689 ± 0.12
4 | UACUAGCAAUAUUACGACCC | – | -0.364 ± 0.39
5 | UACUAGCAAUAUUACGACUG | -0.572 ± 0.095 | 0.113 ± 0.13
6 | UACUAGCAAUAUUACGAGCG | -0.191 ± 0.088 | 0.655 ± 0.11
7 | UACUAGCAAUAUUACGAGCU | -2.4 ± 0.24 | –
8 | UACUAGCAAUAUUACGAUAA | -1.05 ± 0.085 | -0.513 ± 0.093
9 | UACUAGCAAUAUUACGCAAA | -2.94 ± 0.31 | -0.966 ± 0.2
10 | UACUAGCAAUAUUACGCAGC | -2.49 ± 0.39 | -2.08 ± 0.39
11 | UACUAGCAAUAUUACGCAGG | -1.77 ± 0.14 | -1.49 ± 0.15
12 | UACUAGCAAUAUUACGCAUG | -1.72 ± 0.099 | -0.591 ± 0.12
13 | UACUAGCAAUAUUACGCCCG | 0.342 ± 0.24 | -1.04 ± 0.2
14 | UACUAGCAAUAUUACGCGGG | -3.19 ± 0.22 | -1.75 ± 0.2
15 | UACUAGCAAUAUUACGCUCA | -0.532 ± 0.095 | 0.288 ± 0.13
16 | UACUAGCAAUAUUACGCUCG | -0.908 ± 0.13 | 0.0226 ± 0.15
17 | UACUAGCAAUAUUACGGCAC | -2.77 ± 0.19 | -1.73 ± 0.2
18 | UACUAGCAAUAUUACGGCCC | -1.47 ± 0.16 | -2.36 ± 0.28
19 | UACUAGCAAUAUUACGGCUU | -1.2 ± 0.096 | 0.146 ± 0.12
20 | UACUAGCAAUAUUACGGUAA | -2.33 ± 0.14 | -1.01 ± 0.12
21 | UACUAGCAAUAUUACGGUUG | -2.18 ± 0.081 | -1.06 ± 0.11
22 | UACUAGCAAUAUUACGUAAG | -4.32 ± 0.31 | -3.07 ± 0.3
23 | UACUAGCAAUAUUACGUACG | -2.76 ± 0.1 | -1.31 ± 0.091
24 | UACUAGCAAUAUUACGUUGA | -3.37 ± 0.17 | -0.894 ± 0.12
25 | UAGAAGCAAUAUUACGAAAG | -1.97 ± 0.21 | -1.26 ± 0.18
26 | UAGAAGCAAUAUUACGAACA | -0.322 ± 0.16 | -0.859 ± 0.17
27 | UAGAAGCAAUAUUACGACUC | -0.192 ± 0.12 | -0.013 ± 0.16

Row | Sequence | self-splicing fitness (ln) (30 °C) | self-splicing fitness (ln) (37 °C)
28 | UAGAAGCAAUAUUACGAGUA | -1.31 ± 0.096 | -0.33 ± 0.12
29 | UAGAAGCAAUAUUACGCUGU | -3.73 ± 0.26 | -0.977 ± 0.15
30 | UAGAAGCAAUAUUACGGAGU | -3.56 ± 0.15 | -2.1 ± 0.13
31 | UAGAAGCAAUAUUACGGAUA | -1.18 ± 0.1 | -0.43 ± 0.11
32 | UAGAAGCAAUAUUACGGCCG | 0.101 ± 0.083 | -0.0885 ± 0.11
33 | UAGAAGCAAUAUUACGGGAC | -3.1 ± 0.36 | -3.21 ± 0.47
34 | UAGAAGCAAUAUUACGGUAG | -1.88 ± 0.13 | -0.213 ± 0.13
35 | UAGAAGCAAUAUUACGGUGC | – | -1.46 ± 0.48
36 | UAGAAGCAAUAUUACGUAUA | -1.58 ± 0.16 | -0.471 ± 0.15
37 | UAGAAGCAAUAUUACGUCCU | -0.903 ± 0.12 | -0.0829 ± 0.17
38 | UAGAAGCAAUAUUACGUGGU | -3.52 ± 0.2 | -2.54 ± 0.18
39 | UAGAAGCAAUAUUACGUUGA | -2.99 ± 0.23 | -1.62 ± 0.18
40 | UAGAAGCAAUAUUACGUUUG | -2.32 ± 0.1 | -0.879 ± 0.12
41 | UAGCAGCAAUAUUACGAAUA | -0.737 ± 0.1 | -0.606 ± 0.11
42 | UAGCAGCAAUAUUACGAGUC | -4.81 ± 0.34 | -2.22 ± 0.22
43 | UAGCAGCAAUAUUACGAUGC | – | -1.66 ± 0.49
44 | UAGCAGCAAUAUUACGAUGG | -1.6 ± 0.063 | -0.933 ± 0.073
45 | UAGCAGCAAUAUUACGAUGU | -3.82 ± 0.21 | -2.5 ± 0.2
46 | UAGCAGCAAUAUUACGCACA | -0.126 ± 0.072 | 0.0233 ± 0.11
47 | UAGCAGCAAUAUUACGCAUA | -1.09 ± 0.07 | -0.101 ± 0.079
48 | UAGCAGCAAUAUUACGCGAA | -1.54 ± 0.091 | -1.24 ± 0.12
49 | UAGCAGCAAUAUUACGCGAC | -3.54 ± 0.21 | -1.67 ± 0.21
50 | UAGCAGCAAUAUUACGCGCC | -1.77 ± 0.12 | -1.16 ± 0.19
51 | UAGCAGCAAUAUUACGCUCA | -0.152 ± 0.095 | 0.307 ± 0.1
52 | UAGCAGCAAUAUUACGGAAC | -4.05 ± 0.27 | -3.08 ± 0.31
53 | UAGCAGCAAUAUUACGGAAG | -3.04 ± 0.16 | -1.14 ± 0.15
54 | UAGCAGCAAUAUUACGGAGC | -2.95 ± 0.44 | -1.74 ± 0.49

Row | Sequence | self-splicing fitness (ln) (30 °C) | self-splicing fitness (ln) (37 °C)
55 | UAGCAGCAAUAUUACGGCAG | -0.659 ± 0.1 | 0.546 ± 0.13
56 | UAGCAGCAAUAUUACGGCUU | -1.1 ± 0.11 | 0.255 ± 0.15
57 | UAGCAGCAAUAUUACGGUAA | -1.32 ± 0.09 | -1.13 ± 0.11
58 | UAGCAGCAAUAUUACGGUCA | -0.671 ± 0.07 | 0.278 ± 0.085
59 | UAGCAGCAAUAUUACGUAUU | -3.99 ± 0.26 | -1.54 ± 0.19
60 | UAGCAGCAAUAUUACGUCGU | -3.4 ± 0.14 | -1.97 ± 0.12
61 | UAGCAGCAAUAUUACGUUAC | – | -1.36 ± 0.22
62 | UAGCAGCAAUAUUACGUUUA | -1.26 ± 0.067 | -0.291 ± 0.078
63 | UAGCAGCAAUAUUACGUUUC | -2.78 ± 0.29 | -1.85 ± 0.33
64 | UAGGAGCAAUAUUACGAAUA | -1.13 ± 0.41 | –
65 | UAGGAGCAAUAUUACGACGA | -1.21 ± 0.2 | -0.888 ± 0.28
66 | UAGGAGCAAUAUUACGAGGC | -2.87 ± 0.17 | -3 ± 0.29
67 | UAGGAGCAAUAUUACGAUUA | -0.679 ± 0.065 | 0.31 ± 0.094
68 | UAGGAGCAAUAUUACGCCUA | -3.16 ± 0.34 | -3.02 ± 0.35
69 | UAGGAGCAAUAUUACGCGCA | -0.955 ± 0.1 | -0.414 ± 0.12
70 | UAGGAGCAAUAUUACGCGCC | – | -1.03 ± 0.37
71 | UAGGAGCAAUAUUACGCGGG | – | -1.24 ± 0.21
72 | UAGGAGCAAUAUUACGCUGG | -2.38 ± 0.43 | -0.826 ± 0.28
73 | UAGGAGCAAUAUUACGGACG | – | -0.862 ± 0.38
74 | UAGGAGCAAUAUUACGGGGG | – | -2.74 ± 0.41
75 | UAGGAGCAAUAUUACGUAAA | -2.09 ± 0.16 | -1.49 ± 0.15
76 | UAGGAGCAAUAUUACGUAGC | -3.98 ± 0.24 | -2.74 ± 0.21
77 | UAGGAGCAAUAUUACGUCCA | -1.23 ± 0.17 | -0.339 ± 0.18
78 | UAGGAGCAAUAUUACGUGCG | -2.89 ± 0.17 | -0.951 ± 0.16
79 | UAGGAGCAAUAUUACGUGUU | -2.97 ± 0.13 | -2.51 ± 0.17
